Where only a bound is given, the exact number is not on record here.

Experimental findings from article PMC3707082 are described below.

In assay [1] the target is C-terminally truncated PTEN (t-PTEN, aa 1-378) (human) (UniProt P60484).
The target is the same in assay [2]. The source holds these as a separate data set.

With “synthetic C-tail tetraphosphorylated peptide (aa 379-403, 4p-25mer) (from UniProt P60484 379-403)”, the extent of inhibition of the lipid phosphatase activity of t-PTEN by 4p-25mer with soluble PIP3 substrate in assay [1] is above 95%. In assay [2], the inhibition of t-PTEN soluble PIP3 (diC6-PIP3) phosphatase activity by the peptide in trans, malachite green phosphate release, IC50 was 1000 nM.
